Laboratory results reported in patent JPH11332594A (dated 1999).

Molecular target: T1, ヒト可溶性CD4 (human soluble CD4 made in Example 1, C-terminal FLAG-tag, expressed in COS7 cells) (human, UniProt P01730 26-396)
T1 construct: extracellular domain; Purified on anti-FLAG-M2 gel; also called ヒトCD4抗原
Experiment: SPR, BIA-core2000; human soluble CD4 amine-coupled to CM5 chip, antibody as analyte (50 μg/ml)

B1: 4H5抗体 (anti-human CD4 mouse monoclonal antibody from Mouse-Mouse hybridoma 4H5, FERM P-16807) (antibody, V domains shown)
VH: QVQLQQSGPELVKPGASVKMSCKASGYTFTDYVINWLNQRTGQGLEWIGEIYPGSGSAYYNEMFKGKATLTADKSSNTAYMQLSSLTSEDSAVYFCARRGTGTGFAYWGRGTLVTVSA
VL: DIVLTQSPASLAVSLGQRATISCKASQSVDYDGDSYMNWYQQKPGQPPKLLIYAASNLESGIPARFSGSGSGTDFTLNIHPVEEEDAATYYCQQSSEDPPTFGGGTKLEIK
notes: Whole mouse monoclonal antibody from the hybridoma; also called 4H5 antibody; 抗ヒトCD4抗体(4H5抗体)
Kd: 0.808 nM
koff: 5.33e-06 s⁻¹

B2: キメラ4H5抗体 (human-mouse chimeric anti-CD4 antibody expressed from plasmid pG14H5 in COS7 cells) (antibody, V domains shown)
VH: LQQSGPELVKPGASVKMSCKASGYTFTDYVINWLNQRTGQGLEWIGEIYPGSGSAYYNEMFKGKATLTADKSSNTAYMQLSSLTSEDSAVYFCARRGTGTGFAYWGRGTLVTVSA
VL: LTQSPASLAVSLGQRATISCKASQSVDYDGDSYMNWYQQKPGQPPKLLIYAASNLESGIPARFSGSGSGTDFTLNIHPVEEEDAATYYCQQSSEDPPTFGGGTKLEIK
notes: The human light chain constant region is not specified; also called chimeric 4H5 antibody; ヒトマウスキメラ抗CD4抗体
Kd: 1.24 nM
koff: 2.92e-05 s⁻¹
